Test results as given in patent publication US20090280109A1, “ILT3 and ILT4-related compositions and methods” (The Trustees of Columbia University in the City of New York, priority 2001, published 2009).
Entries after “also recorded” stand apart in the source; their conditions may differ.

System: ILT3 and ILT4 on monocytes and DCs
Test: Flow cytometry of ILT3, ILT4 and costimulatory molecules on APCs
Assay type: cell-based, human
Details: for ILT3 and ILT4 expression on APC (monocytes and dendritic cells): treatment of APC
Method: To study the expression of ILT3 or ILT4 and costimulatory molecules on normal APCs from peripheral blood or spleen cell suspensions, APCs were incubated with TS cells for 18 h with or without CD40L-transfected D1.1 cells (see Results). The cells were then collected, washed and saturating amounts of mAbs to ILT3 or ILT4 were added (21, 22). After 30 min on ice, cells were washed twice, stained with PE-goat-anti-mouse or PE-goat-anti-rat (Caltech, Burlingame, Calif.), then washed twice again, incubated with mouse or rat IgG (as a blocking antibody, Vector Labs, Burlingame, Calif.), washed twice, then stained with mAbs to FITC-CD14 or cychrome-CD11c, FITC-HLA-DR and PerCP-CD3 (Pharmingen, San Diego, Calif.). In other samples, mAbs to PE-CD80 and PE-CD86 were added along with markers for monocytes and DCs. CD3^+ T cells were gated-out and CD14^+ monocytes or CD14^− CD11c^+HLA-DR^+ immature DCs were analyzed with CellQuest software on a G4 Apple Macintosh Computer. Annexin V and PI staining of target APCs was done as described (12). Five parameter analyses (forward scatter, side scatter and three fluorescence channels) were used for list mode data analysis. The FL3 channel was used as a fluorescence trigger and FL1 and FL2 as analysis parameters.

Row | Molecule | ILT3 and ILT4 expression on APC (monocytes and dendritic cells) | CD86 expression on human monocytes and DCs (within 20 h of incubation) | expression of ILT3 and ILT4 on the membranes of human monocytes and DCs (within 20 h of incubation)
1 | TNF-alpha | increase the expression | – | –
2 | IL-10: Interleukin 10, immunoregulatory cytokine (protein, UniProt P22301 19-178, looked up) Interleukin-10: SPGQGTQSENSCTHFPGNLPNMLRDLRDAFSRVKTFFQMKDQLDNLLLKESLLEDFKGYLGCQALSEMIQFYLEEVMPQAENQDPDIKAHVNSLGENLKTLRLRLRRCHRFLPCENKSKAVEQVKNAFNKLQEKGIYKAMSEFDIFINYIEAYMTMKIRN | induces upregulation; also recorded: increase the expression | down-regulated | up-regulated
